Here are results for 27 molecules from patent US12281162 (LANOVA MEDICINES DEVELOPMENT, dated 2025).

B1: 37-H2L2 (antibody, V domains shown)
VH: EVQLVESGGGLVQPGGSLRLSCAASGFTFSDYWMNWVRQSPGKGLEWVAEIRLKSNNYATHYAESVKGRFTISRDNAKSSLYLQMNSLRAEDTAVYYCTRPLLWFRRYYAMDYWGQGTLVTVSS
VL: DIQMTQSPSSLSASVGDRVTITCSASQGISNYLNWYQQKPGKTVKLLIYYTSSLHSGVPSRFSGSGSGTDYTLTISSLQPEDFATYYCQQYSKLPFTFGQGTKLEIK
notes: humanized 37B9C4, VH v2 x VL v2
B2: 37-H2L1 (antibody, V domains shown)
VH: B1 VH
VL: B1 VL with T43A, V44P, Y71F
notes: humanized 37B9C4, VH v2 x VL v1
B3: 37-H3L1 (antibody, V domains shown)
VH: B1 VH with N76D, A77S, L81V
VL: B1 VL with T43A, V44P, Y71F
notes: humanized 37B9C4, VH v3 x VL v1
B4: 37-H1L3 (antibody, V domains shown)
VH: B1 VH with S40A, S79N, T99A
VL: B1 VL with V19I, Q100S
notes: humanized 37B9C4, VH v1 x VL v3
B5: 37-H3L2 (antibody, V domains shown)
VH: B1 VH with N76D, A77S, L81V
VL: B1 VL
notes: humanized 37B9C4, VH v3 x VL v2
B6: 37-H2L3 (antibody, V domains shown)
VH: B1 VH
VL: B1 VL with V19I, Q100S
notes: humanized 37B9C4, VH v2 x VL v3
B7: 37-H3L3 (antibody, V domains shown)
VH: B1 VH with N76D, A77S, L81V
VL: B1 VL with V19I, Q100S
notes: humanized 37B9C4, VH v3 x VL v3
B8: 37-H1L2 (antibody, V domains shown)
VH: B1 VH with S40A, S79N, T99A
VL: B1 VL
notes: humanized 37B9C4, VH v1 x VL v2
B9: 34-H2L2 (antibody, V domains shown)
VH: EVQLVESGGGLVKPGGSLRLSCAASGFTFSSYGMSWVRQTPGKGLEWVATISSGGSYTYYPDSVKGRFTISRDNAKNSLYLQMSSLRAEDTAVYYCARQGGDAMDYWGQGTLVTVSS
VL: DIQMTQSPSSLSASVGDRVTITCRASQSINNNLHWYQQKPGKAPKLLIYYASQSISGIPSRFSGSGSGTDFTLTISSVQPEDFATYFCQQSNSRLTFGGGTKVEIK
notes: humanized 34D3H1, VH v2 x VL v2
B10: 34-H3L4 (antibody, V domains shown)
VH: B9 VH with Q3H, G44R, Y80N
VL: B9 VL with Q3V, M4L, A13V, I21L, A43S, V103L
notes: humanized 34D3H1, VH v3 x VL v4
B11: 34-H3L2 (antibody, V domains shown)
VH: B9 VH with Q3H, G44R, Y80N
VL: B9 VL
notes: humanized 34D3H1, VH v3 x VL v2
B12: 34-H1L4 (antibody, V domains shown)
VH: B9 VH with T40A, A49S, S84N
VL: B9 VL with Q3V, M4L, A13V, I21L, A43S, V103L
notes: humanized 34D3H1, VH v1 x VL v4
B13: 34-H1L3 (antibody, V domains shown)
VH: B9 VH with T40A, A49S, S84N
VL: B9 VL with M4L, A43S, V103L
notes: humanized 34D3H1, VH v1 x VL v3
B14: 34-H2L4 (antibody, V domains shown)
VH: B9 VH
VL: B9 VL with Q3V, M4L, A13V, I21L, A43S, V103L
notes: humanized 34D3H1, VH v2 x VL v4
B15: 34-H2L3 (antibody, V domains shown)
VH: B9 VH
VL: B9 VL with M4L, A43S, V103L
notes: humanized 34D3H1, VH v2 x VL v3
B16: 34-H3L1 (antibody, V domains shown)
VH: B9 VH with Q3H, G44R, Y80N
VL: B9 VL with I58V, V78L, F87Y
notes: humanized 34D3H1, VH v3 x VL v1
B17: 34-H1L2 (antibody, V domains shown)
VH: B9 VH with T40A, A49S, S84N
VL: B9 VL
notes: humanized 34D3H1, VH v1 x VL v2
B18: 34-H2L1 (antibody, V domains shown)
VH: B9 VH
VL: B9 VL with I58V, V78L, F87Y
notes: humanized 34D3H1, VH v2 x VL v1
B19: 34-H3L3 (antibody, V domains shown)
VH: B9 VH with Q3H, G44R, Y80N
VL: B9 VL with M4L, A43S, V103L
notes: humanized 34D3H1, VH v3 x VL v3
B20: 58-H1L3 (antibody, V domains shown)
VH: QVQLVQSGAEVKKPGASVKVSCKASGYSFTGYYIHWVRQAPGQGLEWMGYISSYNAATSFNQKFKGRVTMTRDTSTSTVYMELSSLRSEDTAVYYCARTELRGPWFAYWGQGTLVTVSS
VL: DTQLTQSPSSLSASVGDRVTMTCSASSSVSYMNWYQQKPGKAPKRLIYDTSKLASGVPSRFSGSGSGTDYTLTISSMQPEDFATYYCQQWSNNPLTFGQGTKLEIK
notes: humanized 58F9G10, VH v1 x VL v3
B21: 58-H4L3 (antibody, V domains shown)
VH: B20 VH with V20I, R38K, M48I, V68A, M70F, R72V, V79A, L83F, T91S
VL: B20 VL
notes: humanized 58F9G10, VH v4 x VL v3
B22: 58-H4L2 (antibody, V domains shown)
VH: B20 VH with V20I, R38K, M48I, V68A, M70F, R72V, V79A, L83F, T91S
VL: B20 VL with L4M, M21I, M77L
notes: humanized 58F9G10, VH v4 x VL v2
B23: 58-H4L1 (antibody, V domains shown)
VH: B20 VH with V20I, R38K, M48I, V68A, M70F, R72V, V79A, L83F, T91S
VL: B20 VL with T2I, L4M, M21I, R45L, Y70F, M77L
notes: humanized 58F9G10, VH v4 x VL v1
B24: 58-H3L2 (antibody, V domains shown)
VH: B20 VH with R38K, M48I, M70F, R72V, L83F
VL: B20 VL with L4M, M21I, M77L
notes: humanized 58F9G10, VH v3 x VL v2
B25: 58-H2L3 (antibody, V domains shown)
VH: B20 VH with M48I, M70F, R72V
VL: B20 VL
notes: humanized 58F9G10, VH v2 x VL v3
B26: 58-H2L1 (antibody, V domains shown)
VH: B20 VH with M48I, M70F, R72V
VL: B20 VL with T2I, L4M, M21I, R45L, Y70F, M77L
notes: humanized 58F9G10, VH v2 x VL v1
B27: 58-H3L3 (antibody, V domains shown)
VH: B20 VH with R38K, M48I, M70F, R72V, L83F
VL: B20 VL
notes: humanized 58F9G10, VH v3 x VL v3

Changes are numbered by the printed parent chain.

For one assay, the target named is T1, human G-protein-coupled receptor family C group 5 member D (GPRC5D) (human, UniProt Q9NZD1 1-345).
T1 construct: whole, on cells; also called human GPRC5D protein
T1 sequence (Q9NZD1 whole entry): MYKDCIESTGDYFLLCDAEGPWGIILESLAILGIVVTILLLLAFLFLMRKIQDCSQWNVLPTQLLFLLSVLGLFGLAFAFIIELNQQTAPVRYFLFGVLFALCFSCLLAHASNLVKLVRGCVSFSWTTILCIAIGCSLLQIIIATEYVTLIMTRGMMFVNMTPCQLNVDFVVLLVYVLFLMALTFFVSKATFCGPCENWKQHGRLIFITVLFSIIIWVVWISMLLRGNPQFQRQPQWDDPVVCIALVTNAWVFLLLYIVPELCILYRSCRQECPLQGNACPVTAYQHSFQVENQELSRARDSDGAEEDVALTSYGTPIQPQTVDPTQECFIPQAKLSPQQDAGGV
In words: FACS, CHO-K1/GPRC5D. For orientation: A flow cytometer gives signals particle by particle.
Regarding B1, the Bottom was 9380, the LogEC50 was determined as 0.345, the Span was found to be 166000 and the Top is 175000.

B2 yielded a Bottom of 9180, a LogEC50 of 0.351, a Span of 166000 and a Top of 175000.

In turn, B3 had a Bottom of 6370, a LogEC50 of 0.292, a Span of 173000 and a Top of 179000.

Take B4: the Bottom was determined as 10400, the LogEC50 was 0.233, the Span came to 163000 and the Top came out at 173000.

As to B5, the Bottom came to 9190, the LogEC50 came out at 0.315, the Span was 170000 and the Top is 179000.

In the case of B6, the Bottom was 8050, the LogEC50 is 0.333, the Span worked out at 160000 and the Top amounted to 168000.

B7 yielded a Bottom of 7780, a LogEC50 of 0.285, a Span of 173000 and a Top of 181000.

B8 showed a Bottom of 8850, a LogEC50 of 0.35, a Span of 173000 and a Top of 182000.

The target of the next assay is T1, human G-protein-coupled receptor family …. In words: FACS, CHO-K1/GPRC5D. This is another data set of the same source.
B9 showed a Bottom of 8740, a LogEC50 of 0.625, a Span of 170000 and a Top of 179000.

The molecule B10 displayed a Bottom of 12800, a LogEC50 of 0.598, a Span of 180000 and a Top of 193000.

On to B11, for which the Bottom worked out at 9040, the LogEC50 was found to be 0.646, the Span was found to be 171000 and the Top is 180000.

On to B12, for which the Bottom turned out to be 10300, the LogEC50 stood at 0.6, the Span amounted to 179000 and the Top is 189000.

Take B13: the Bottom was 10600, the LogEC50 was determined as 0.573, the Span is 175000 and the Top worked out at 186000.

B14: the Bottom was 4390, the LogEC50 came to 0.609, the Span was determined as 188000 and the Top was found to be 192000.

Consider B15, for which the Bottom is 7060, the LogEC50 came to 0.583, the Span came out at 179000 and the Top is 186000.

For the molecule B16, the Bottom was determined as 11100, the LogEC50 amounted to 0.521, the Span was 167000 and the Top was 178000.

Molecule B17 displayed a Bottom of 13900, a LogEC50 of 0.584, a Span of 168000 and a Top of 182000.

B18 returned a Bottom of 7850, a LogEC50 of 0.619, a Span of 179000 and a Top of 187000.

Turning to B19, the Bottom is 9120, the LogEC50 was determined as 0.651, the Span turned out to be 184000 and the Top was 193000.

A further assay has the same target. The experiment in a line: FACS, CHO-K1/GPRC5D. This is another data set of the same source.
Molecule B20 showed a Bottom of 4230, a LogEC50 of 0.231, a Span of 101000 and a Top of 105000.

The molecule B21 gave a Bottom of 6250, a LogEC50 of 0.287, a Span of 96400 and a Top of 103000.

B22 yielded a Bottom of 4600, a LogEC50 of 0.341, a Span of 100000 and a Top of 105000.

The molecule B23 registered a Bottom of 4990, a LogEC50 of 0.365, a Span of 99600 and a Top of 105000.

Molecule B24 came in with a Bottom of 5980, a LogEC50 of 0.374, a Span of 99500 and a Top of 105000.

In the case of B25, the Bottom was found to be 1230, the LogEC50 stood at 0.27, the Span came out at 90500 and the Top turned out to be 91700.

For the molecule B26, the Bottom stood at 3620, the LogEC50 was determined as 0.378, the Span was determined as 106000 and the Top is 110000.

B27 gave a Bottom of 4020, a LogEC50 of 0.318, a Span of 93700 and a Top of 97700.
